The target in one data set is T1, Btn-LMVGG.
T1 chain: GLMVGGV

The next data set addresses T2, Abz-LMVGGK(Dnp)-CONH2.
T2 chain: LMVGGK

For data set [1], the target named is T3, LPPAG substrate (flow cytometry panel).
T3 chain: LPPAG

In data set [2] the target is T4, LPESG substrate (flow cytometry panel).
T4 chain: LPESG

For the next data set, the target named is T5, Abz-LPESGK(Dnp)-CONH2.
T5 chain: LPESGK

In data set [3] the target is T6, endogenous fetuin A in human plasma, P02765.
T6 chain: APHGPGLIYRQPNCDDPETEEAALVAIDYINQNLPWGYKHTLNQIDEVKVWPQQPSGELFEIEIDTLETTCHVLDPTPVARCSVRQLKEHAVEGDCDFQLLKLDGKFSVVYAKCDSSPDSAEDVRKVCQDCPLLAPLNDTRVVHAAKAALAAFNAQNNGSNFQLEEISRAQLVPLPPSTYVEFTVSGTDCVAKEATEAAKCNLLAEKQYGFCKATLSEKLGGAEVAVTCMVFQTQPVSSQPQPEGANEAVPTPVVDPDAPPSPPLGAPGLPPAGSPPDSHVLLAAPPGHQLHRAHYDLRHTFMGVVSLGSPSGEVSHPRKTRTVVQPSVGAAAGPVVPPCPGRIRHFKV

A further data set addresses T7, purified fetuin A.
T7 sequence (P02765 19-300, species assumed, looked up): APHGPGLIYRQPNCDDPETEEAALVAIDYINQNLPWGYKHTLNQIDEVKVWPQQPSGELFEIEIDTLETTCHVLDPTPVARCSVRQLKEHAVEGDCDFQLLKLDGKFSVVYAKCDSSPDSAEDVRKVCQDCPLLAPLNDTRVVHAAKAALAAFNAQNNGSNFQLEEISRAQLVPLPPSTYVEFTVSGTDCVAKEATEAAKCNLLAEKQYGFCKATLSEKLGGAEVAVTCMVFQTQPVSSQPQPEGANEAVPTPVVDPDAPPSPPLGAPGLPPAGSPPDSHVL
T7 sequence (P02765 341-367, species assumed, looked up): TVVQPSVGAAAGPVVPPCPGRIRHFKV

Sequence of Aβ40, P05067 (P05067 whole entry, looked up): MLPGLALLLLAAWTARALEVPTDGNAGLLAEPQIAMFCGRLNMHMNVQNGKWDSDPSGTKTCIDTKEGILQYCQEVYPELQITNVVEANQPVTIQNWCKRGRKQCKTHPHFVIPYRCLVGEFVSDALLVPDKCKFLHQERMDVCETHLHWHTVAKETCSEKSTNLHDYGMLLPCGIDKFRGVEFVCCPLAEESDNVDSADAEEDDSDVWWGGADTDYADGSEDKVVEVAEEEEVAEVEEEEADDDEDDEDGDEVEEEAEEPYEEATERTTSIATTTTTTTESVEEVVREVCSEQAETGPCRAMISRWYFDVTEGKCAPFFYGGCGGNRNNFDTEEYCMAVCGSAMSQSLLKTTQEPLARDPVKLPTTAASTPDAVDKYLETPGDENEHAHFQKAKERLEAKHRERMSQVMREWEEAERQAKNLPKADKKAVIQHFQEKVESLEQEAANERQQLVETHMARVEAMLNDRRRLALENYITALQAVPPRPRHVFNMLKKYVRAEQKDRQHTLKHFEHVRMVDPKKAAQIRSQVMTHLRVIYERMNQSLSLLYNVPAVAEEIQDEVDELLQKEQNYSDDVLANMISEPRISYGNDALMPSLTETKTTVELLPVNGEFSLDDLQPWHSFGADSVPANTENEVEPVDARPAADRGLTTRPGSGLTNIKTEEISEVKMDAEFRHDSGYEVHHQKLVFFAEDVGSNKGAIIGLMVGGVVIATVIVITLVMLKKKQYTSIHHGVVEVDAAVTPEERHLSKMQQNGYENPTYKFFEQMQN
Sequence of Aβ42, P05067 (P05067 whole entry, looked up): as above
Sequence of Aβ43, P05067 (P05067 whole entry, looked up): as above
Sequence of AβM1-42, P05067 (P05067 whole entry, looked up, tested part not stated): as the sequence (P05067 whole entry, looked up) above
Sequence of AβM1-40, P05067 (P05067 whole entry, looked up, tested part not stated): as the sequence (P05067 whole entry, looked up) above

B1: SrtAβ (protein)
chain: MKKWTNRLMTIAGVVLILVAAYLFAKPHIDNYLHDKDKDEKIEQYDKNVKEQASKDKKQQAKPQIPKDKSKVAGYLEIPDADIKEPVYPGPATREQLDRGVCFVDEDESLDDQNISIIGHTALLRPHYQFTNLRAAKLDSIVYFTVGNETRRYKITSICNVRPTAVEVLDEHEGKDRQLTLATCDDYNYETGVWESSKIFVATEVR
Regarding B1, in the data set with Btn-LMVGG, the “change in substrate preference against 4S.6 (flow cytometry)” value is 1,470-fold change in preference to favor LMVGG [SEQ ID NO: 3] over LPESG [SEQ ID NO: 4]; the “fold change of activity against 4S.6 (flow cytometry, yeast display)” value (“fold change … (flow cytometry, yeast display)” for short) was 28-fold increased activity on LMVGG; the “substrate preference, LMVGG over LPESG (flow cytometry)” value was 30-fold preference for LMVGG [SEQ ID NO: 3] over LPESG [SEQ ID NO: 4]. In addition, in the data set with Abz-LMVGGK(Dnp)-CONH2, the KM result is “KM=128 µM (95% CI=87 to 198 µM)” and the kcat entry is given as “kcat=0.018 s-1 (95% CI=0.015 to 0.023 s-1)”. Besides, in the data set with AβM1-42, P05067, the “conversion to transpeptidation product with GGGRR (HPLC)” value is 64% of the starting AβM1-42 was converted to the desired product. In addition, the “fold change … (flow cytometry, yeast display)” value in data set [1] is reported as 11-fold reduced activity on LPPAG. Moreover, the “conversion to transpeptidation product with GGGK(Btn) (HPLC)” value with AβM1-40, P05067 is 82% of the starting AβM1-40 was converted to the desired product. In the data set with Aβ42, P05067, the “conversion to transpeptidation product with 200 µM GGGRR (HPLC)” value is reported as “as opposed to 50% when reacted with 200 µM GGGRR”; the “conversion to transpeptidation product with 1 mM GGGRR (HPLC)” value is 64% of the Aβ42 was converted to the expected product when reacted with 1 mM GGGRR; the “modification by the sortase” value was “SrtAβ has been shown to modify Aβ40, Aβ42, and Aβ43”. Further, in the data set with Aβ40, P05067, the “biotinylated product formed in human plasma (streptavidin capture ELISA)” value is listed as 1.5 µM SrtAβ generating 2.3 µM of biotinylated product from 5 µM Aβ40 in two hours; the “lowest Aβ40 concentration at which labeling was observed in human plasma (m266 capture ELISA)” value is “labeling of Aβ40 spiked into human plasma at concentrations as low as 5 nM was observed”; the “modification by the sortase” value was “SrtAβ has been shown to modify Aβ40, Aβ42, and Aβ43”; the “yield of transpeptidation products with glycine nucleophiles (HPLC)” value was “the expected transpeptidation products were observed in yields of 80-88%”. The “fold change … (flow cytometry, yeast display)” value in data set [2] is on record as 53-fold reduced activity on LPESG. Moreover, in the data set with Abz-LPESGK(Dnp)-CONH2, the “kinetic parameters (HPLC assay)” value is “SrtAβ activity on LPESG [SEQ ID NO: 4] was too low to establish accurate kinetic parameters”. Further, the “modification by the sortase” value with Aβ43, P05067 is “SrtAβ has been shown to modify Aβ40, Aβ42, and Aβ43”. Also, in data set [3], the “activity on fetuin A in human plasma (streptavidin pulldown, Coomassie)” value is reported as “a sortase variant with greatly reduced activity on fetuin A relative to the starting sortase 4S.6 was generated” and the “labeling with GGGK(Btn) in human plasma, Western blot” value was 4S.6, but not SrtAβ, labels fetuin A.

B2: SrtAβ reversion mutant R177K (protein)
chain: MKKWTNRLMTIAGVVLILVAAYLFAKPHIDNYLHDKDKDEKIEQYDKNVKEQASKDKKQQAKPQIPKDKSKVAGYLEIPDADIKEPVYPGPATREQLDRGVCFVDEDESLDDQNISIIGHTALLRPHYQFTNLRAAKLDSIVYFTVGNETRRYKITSICNVRPTAVEVLDEHEGKDKQLTLATCDDYNYETGVWESSKIFVATEVR
In the data set with Btn-LMVGG, B2 came in with a reduction of activity against SrtAβ (flow cytometry, yeast display) of 2 fold.

B3: SrtAβ reversion mutant A182V (protein)
chain: MKKWTNRLMTIAGVVLILVAAYLFAKPHIDNYLHDKDKDEKIEQYDKNVKEQASKDKKQQAKPQIPKDKSKVAGYLEIPDADIKEPVYPGPATREQLDRGVCFVDEDESLDDQNISIIGHTALLRPHYQFTNLRAAKLDSIVYFTVGNETRRYKITSICNVRPTAVEVLDEHEGKDRQLTLVTCDDYNYETGVWESSKIFVATEVR
B3: the reduction of activity against SrtAβ (flow cytometry, yeast display) in the data set with Btn-LMVGG is 2 fold.

B4: SrtAβ reversion mutant C159R (protein)
chain: MKKWTNRLMTIAGVVLILVAAYLFAKPHIDNYLHDKDKDEKIEQYDKNVKEQASKDKKQQAKPQIPKDKSKVAGYLEIPDADIKEPVYPGPATREQLDRGVCFVDEDESLDDQNISIIGHTALLRPHYQFTNLRAAKLDSIVYFTVGNETRRYKITSIRNVRPTAVEVLDEHEGKDRQLTLATCDDYNYETGVWESSKIFVATEVR
In turn, B4 came in with a reduction of activity against SrtAβ (flow cytometry, yeast display) with Btn-LMVGG of 2 fold.

B5: SrtAβ reversion mutant R134G (protein)
chain: MKKWTNRLMTIAGVVLILVAAYLFAKPHIDNYLHDKDKDEKIEQYDKNVKEQASKDKKQQAKPQIPKDKSKVAGYLEIPDADIKEPVYPGPATREQLDRGVCFVDEDESLDDQNISIIGHTALLRPHYQFTNLGAAKLDSIVYFTVGNETRRYKITSICNVRPTAVEVLDEHEGKDRQLTLATCDDYNYETGVWESSKIFVATEVR
Consider B5, for which the reduction of activity against SrtAβ (flow cytometry, yeast display) with Btn-LMVGG was found to be 2 fold.

B6: minimal mutant (4S.6 with S118I, G134R, R159C, K177R, V182A, and R197S mutations) (protein)
chain: QAKPQIPKDKSKVAGYIEIPDADIKEPVYPGPATREQLDRGVSFVEENESLDDQNISIIGHTAIDRPNYQFTNLRAAKKGSMVYFKVGNETRKYKMTSICNVKPTAVEVLDEQKGKDRQLTLATCDDYNVETGVWETSKIFVATEVK
Consider B6, for which, in the data set with Btn-LMVGG, the “fold change of activity against 4S.6 (flow cytometry)” value is 4-fold improvement in LMVGG [SEQ ID NO: 3] activity relative to 4S.6 and the “fold change of activity against SrtAβ (flow cytometry)” value is 23-fold lower activity than SrtAβ.

B7: round 7 consensus sequence (R7) reversion mutant L124D (protein)
chain: QAKPQIPKDKSKVAGYIEIPDADIKEPVYPGPATYEQLDRGVSFVEENESLDDQNISIIGHTALDRPNYQFTNLRAAKIGSMVYFKVGNETRKYKMTSIRNVKPTAVEVLDEQEGKDKQLTLATCDDYNFETGVWESSKIFVATEVK
With B7, in the data set with Btn-LMVGG, the “fold change of activity against the round 7 consensus sequence (flow cytometry, 100-1000 nM Btn-LMVGG)” value is “L124D (1.1-fold)”.

B8: round 7 consensus sequence (R7) reversion mutant Y94R (protein)
chain: QAKPQIPKDKSKVAGYIEIPDADIKEPVYPGPATREQLDRGVSFVEENESLDDQNISIIGHTALLRPNYQFTNLRAAKIGSMVYFKVGNETRKYKMTSIRNVKPTAVEVLDEQEGKDKQLTLATCDDYNFETGVWESSKIFVATEVK
Regarding B8, the “fold change of activity against the round 7 consensus sequence (flow cytometry, 100-1000 nM Btn-LMVGG)” value in the data set with Btn-LMVGG was “Reversion mutant Y94R showed a 2.3-fold improvement on average across substrate concentrations compared to the round 7 consensus sequence”.

B9: round 7 consensus sequence (R7) reversion mutant L123I (protein)
chain: QAKPQIPKDKSKVAGYIEIPDADIKEPVYPGPATYEQLDRGVSFVEENESLDDQNISIIGHTAILRPNYQFTNLRAAKIGSMVYFKVGNETRKYKMTSIRNVKPTAVEVLDEQEGKDKQLTLATCDDYNFETGVWESSKIFVATEVK
With B9, in the data set with Btn-LMVGG, the “fold change of activity against the round 7 consensus sequence (flow cytometry, 100-1000 nM Btn-LMVGG)” value was “L123I (1.5-fold)”.

B10: sortase 4S.6 (protein)
chain: QAKPQIPKDKSKVAGYIEIPDADIKEPVYPGPATREQLDRGVSFVEENESLDDQNISISGHTAIDRPNYQFTNLGAAKKGSMVYFKVGNETRKYKMTSIRNVKPTAVEVLDEQKGKDKQLTLVTCDDYNVETGVWETRKIFVATEVK
As for B10, in the data set with Abz-LMVGGK(Dnp)-CONH2, the kinetic parameters was 4S.6 activity on LMVGG [SEQ ID NO: 3] was not detectable. The “substrate preference, LPESG over LMVGG (flow cytometry)” value in data set [2] was 49-fold preference for LPESG [SEQ ID NO: 4] over LMVGG [SEQ ID NO: 3]. In the data set with Abz-LPESGK(Dnp)-CONH2, the KM result is reported as “KM=610 µM (95% CI=90 to 5550 µM)” and the kcat entry was “kcat=0.36 s-1 (95% CI=0.22 to 0.96 s-1)”. In [3], the “labeling with GGGK(Btn) in human plasma, Western blot” value was 4S.6, but not SrtAβ, labels fetuin A.

B11: SrtA 8.5-H3 (protein)
chain: MKKWTNRLMTIAGVVLILVAAYLFAKPHIDNYLHDKDKDEKIEQYDKNVKEQASKDKKQQARPQIPKDKSKVAGYIEIPDADIKEPVYPGPATREQLDRGVSFVEEDESLDDQNISIIGHTALLRPNYQFTNLRAAKIGSMVYFKVGNETRKYKMTSIRNVKPTAVEVLDEQEGKDRQLTLATCDDYNIETGVWESSKIFVATEVK
On to B11, for which, in the data set with Abz-LMVGGK(Dnp)-CONH2, the KM entry is recorded as “KM=52 µM (95% CI=29 to 103 µM)”, the kcat result is reported as “kcat=0.012 s-1 (95% CI=0.009 to 0.017 s-1)” and the “percent of substrate converted to product (HPLC assay for SrtA activity)” value is “converting 10% of M substrate to product in two hours”. In addition, the “labeling with GGGK(Btn), Western blot” value with purified fetuin A is recorded as “Labeled fetuin A is detected by Western blot”. Besides, the “labeling with GGGK(Btn) in human plasma, Western blot” value in data set [3] was “Western blot of overnight reaction of SrtA 8.5-H3 (50 µM) and GGGK[SEQ ID NO: 6](Btn) (1 mM) in human plasma shows labeling of endogenous fetuin A”.

Values taken from patent US20240077502.
